Results on three molecules are retold here after patent publication US20240382559A1, “PHARMACEUTICAL COMPOSITION COMPRISING KAI1 POLYPEPTIDE FOR INHIBITION OF HEPATIC FIBROSIS AND USE THEREOF” (PUSAN NATIONAL UNIVERSITY INDUSTRY-UNIVERSITY COOPERATION …, priority 2021, published 2024).

The subject of experiment [1] is mouse liver cell line (AML12). In words: qPCR of fibrosis-related genes in TGF-β1-treated liver cell line, rhKAI1 / pepKAI1 WT / pepKAI1 Mut. The note with it: 200 or 500 ng/mL for 2 hours, then TGF-β1 2 ng/ml 24 hours. The experiment is classed as cell-based. The protocol: The effect of wild type KAI1 peptide (pepKAI1 WT) or mutant KAI1 peptide (pepKAI1 Mut) on fibrosis induced by treatment with TGF-β1 was confirmed in mouse liver cell line (AML12).
Specifically, the AML 12 cells were treated with recombinant human KAI1 protein (rhKAI1), wild type KAI1 peptide (pepKAI1 WT), and mutant KAI1 peptide (pepKAI1 Mut) at a concentration of 200 ng/mL or 500 ng/mL, respectively, and reacted for 2 hours. Thereafter, the cells were treated with TGF-β1 at a concentration of 2 ng/ml and cultured for an additional 24 hours, and then the cells were collected. RNA from the collected cells was extracted with Trizol, cDNA was synthesized, and then changes in expression of fibrosis-related genes (α-SMA, Col1a1, TIMP1, Vimentin, TGF-β, and fibronectin) were confirmed by qPCR analysis.
(In general: In qPCR the cycle at which signal appears reflects the starting amount.)

Experiment [2] has as its system acute hepatic fibrosis model mice. In words: H&E staining of liver tissue in CCl4 acute hepatic fibrosis animal model. The following applies: C57BL/6 male mice, CCl4 i.p. twice a week; 4 μg KAI1 protein i.p. per mouse on day 8, liver extracted day 11. Format: in vivo. The procedure: (§1) Specifically, 7-week-old C57BL/6 male mice was prepared, and CCl4 was diluted in corn oil at a concentration of 1 mL/kg. In order to induce acute liver injury, the mice were injected intraperitoneally with the diluted CCl4 twice a week. As a control group, the mice were intraperitoneally injected with the same amount of the corn oil.
(§2) As a KAI1 protein, a polypeptide (Human CD82/KAI-1 Protein (His Tag), Sino Biological Inc.) comprising a KAI1 fragment comprising a polypeptide (extracellular domain, SEQ ID NO: 4) consisting of the 111st to 228th amino acid sequence from the N terminus in a polypeptide consisting of the amino acid sequence of SEQ ID NO: 1 was used. On the 8th day after the start of the experiment, 4 μg of KAI1 protein was injected intraperitoneally per mouse, and on the 11th day, the mice were sacrificed and liver tissue was extracted.
The liver tissue extracted in Example 2.1. was fixed in 10% (v/v) formalin solution. Thereafter, the liver tissue was embedded in paraffin and sectioned to a thickness of 4 μm to prepare tissue sections. After deparaffinization and superhydration, H&E (hematoxylin & eosin) staining was performed and observed under an optical microscope.

For experiment [3] the test system is unchanged. In words: qPCR of fibrosis-related genes in liver tissue of CCl4 acute hepatic fibrosis animal model. The experiment is classed as in vivo, mouse. The following applies: 4 μg KAI1 protein i.p. day 8, liver day 11, vs. CCl4. The procedure:
as §1, §2
RNA was obtained from the liver tissue extracted in Example 2.1. The RNA from the liver tissue was obtained using Favorgen® Trizol according to the manufacturer's instructions. The RNA was reverse transcribed into cDNA using a cDNA synthesis kit (Bioneer corp.). Thereafter, real-time PCR (qPCR) was performed to confirm changes in the expression levels of fibrosis-related genes Col1a1 (collagen type 1), fibronectin, and TGFβ1 (transforming growth factor-β1).

Experiment [4] relates to liver cell line (AML12). In words: qPCR of fibrosis-related genes in TGF-β1-treated liver cell line, KAI1 protein. The experiment is classed as cell-based, mouse. The following applies: 200 or 500 ng/mL for 2 hours, then TGF-β1 2 ng/mL 24 hours. The procedure: In order to confirm the activity of KAI1protein to inhibit hepatic fibrosis at the cellular level, the liver cell line (AML12), which had hepatic fibrosis induced by treatment with TGF-β1, was treated with KAI1 protein to confirm changes in the expression of fibrosis-related genes.
Specifically, the AML 12 cells were cultured in DMEM/F12 medium containing 10% (v/v) fetal bovine serum (FBS), 1% (w/v) penicillin-streptomycin, 10 μg/mL insulin, 5.5 μg/mL transferrin, 5 ng/mL selenium, and 40 ng/ml dexamethasone. The AML12 cells were treated with KAI1 protein at a concentration of 200 ng/ml or 500 ng/mL, respectively, and reacted for 2 hours. Thereafter, the cells were treated with TGF-β1, a fibrosis-inducing cytokine, at a concentration of 2 ng/mL and cultured for an additional 24 hours, and then the cells were collected. RNA from the collected cells was extracted with Trizol, cDNA was synthesized, and then changes in expression of fibrosis-related genes (α-SMA, Col1a1, TIMP1, and MMP9) were confirmed by qPCR analysis.

Experiment [5] deals with mouse liver cell line (AML12). The experiment in a line: Immunoblotting of ZO-1 (EMT) in TGF-β1-treated liver cell line. The experiment is classed as cell-based. The following applies: 500 ng/ml for 2 hours, then TGF-β1 24 or 48 hours. The protocol:
The epithelial-mesenchymal transition (EMT) process has been proposed as one of the mechanisms of fibrosis. Therefore, the effect of KAI1 protein on the EMT process induced by TGF-1 in mouse liver cell line (AML12) was confirmed.
Specifically, the AML12 cells were treated with of KAI1 protein at a concentration of 500 ng/ml and reacted for 2 hours. Thereafter, the cells were treated with TGF-β1 and cultured for an additional 24 hours or 48 hours, and then the cells were collected. The collected cells were lysed in RIPA buffer containing protease inhibitors to extract proteins, and immunoblotting was performed by loading an equal amount of proteins. The protein expression level of ZO-1 was confirmed using an antibody of ZO-1 (anti-ZO antibody, 13663, Abcam), an epithelial biomarker during the EMT process. At this time, anti-tubulin antibody (T5168, Sigma-Aldrich) was used as an internal control, and HRP-conjugated anti-rabbit antibody (ADI-SAB-300-J, Enzo Life Sciences) was used as a secondary antibody.
A general note: In western blotting, separated proteins are transferred to a membrane and probed.

Experiment [6] relates to human hepatic stellate cell line (LX2). In words: Cell proliferation by MTS assay in hepatic stellate cell line. The following applies: rhKAI1 200 or 500 ng/mL, 24 or 48 hours. The experiment is classed as cell-based. The procedure:
(§3) It is known that fibrosis occurs due to excessive proliferation and activation of hepatic stellate cells. Therefore, changes in fibrosis-related gene expression by treatment with KAI1 protein were confirmed in human hepatic stellate cell line (LX2).
(§4) Specifically, the LX2 cell line was treated with recombinant human KAI1 protein (rhKAI1) at a concentration of 200 ng/mL or 500 ng/mL, respectively. Thereafter, the cells were cultured for 24 hours or 48 hours and collected to confirm cell proliferation and fibrosis-related gene expression in the cells. The cell proliferation was measured using MTS assay. RNA from the collected cells was extracted with Trizol, cDNA was synthesized, and then changes in expression of fibrosis-related genes (α-SMA, Col1a1, Vimentin, TGF-β, and GFAP) were confirmed by qPCR analysis.
On the technique in general: Formazan colour is commonly taken as a measure of viable cells.

For experiment [7] the test system is unchanged. The experiment in a line: qPCR of fibrosis-related genes in hepatic stellate cell line. Format: cell-based. The following applies: rhKAI1 200 or 500 ng/mL, 24 or 48 hours. The procedure: as §3, §4
For experiment [8] the test system is unchanged. The experiment in a line: Immunoblotting of fibrosis-related proteins in hepatic stellate cell line. The following applies: 200 or 500 ng/mL, 24 or 48 hours, vs. untreated group. Format: cell-based. The procedure: as §4
The expression of fibrosis-related proteins was confirmed in human hepatic stellate cell line (LX2) treated with KAI1 protein in the same manner as in Example 4.1. At this time, anti-Vimentin antibody (sc-5565, Santa Cruz Biotech.), anti-Col1α1 antibody (NBP1-30054, Novus Biological), anti-α-SMA antibody (A5228, Sigma-Aldrich), anti-GFAP antibody (Z0334, Dako), and anti-GAPDH antibody (MCA4739, AbD Serptec) were used as primary antibodies, and HRP-conjugated anti-rabbit antibody (ADI-SAB-300-J, Enzo Life Sciences) and anti-mouse antibody (ADI-SAB-100-J) were used as secondary antibodies.

Experiment [9] shares this test system. In words: qPCR of senescence-related genes in hepatic stellate cell line. Format: cell-based. The note with it: 200 or 500 ng/mL, 24 or 48 hours, vs. control group. The procedure:
as §4
It is known that hepatic stellate cells can inhibit hepatic fibrosis by inducing senescence in the liver. Therefore, the expression of senescence-related genes (HGMA1, p16, p21 and p53, SIRT1) was confirmed in human hepatic stellate cell line (LX2) treated with KAI1 protein in the same manner as in Example 4.1.

The test system is the same in experiment [10]. The experiment in a line: Immunoblotting of senescence-related proteins in hepatic stellate cell line. Format: cell-based. The following applies: 200 or 500 ng/mL, 24 or 48 hours, vs. untreated group. The protocol: as §4
The expression of senescence-related proteins was confirmed in human hepatic stellate cell line (LX2) treated with KAI1 protein in the same manner as in Example 4.1. At this time, anti-SIRT1 antibody (ab32441, Abcam), anti-p16 antibody (10883-1-ap, Protein tech.), and anti-GAPDH antibody (MCA4739, AbD Serptec) were used as primary antibodies, and HRP-conjugated anti-rabbit antibody (ADI-SAB-300-J, Enzo Life Sciences) and anti-mouse antibody (ADI-SAB-100-J) were used as secondary antibodies.

Turning to “pepKAI1 Mut: mutant peptide with both Y*C and EED substituted with alanine, NRPEVTAPASCEVKGAAANS (SEQ ID NO: 3) (Mutant KAI1 polypeptide)”, in experiment [1], the “expression of fibrosis-related genes (α-SMA, Col1a1, TIMP1, Vimentin, TGF-β, fibronectin) increased by TGF-β1 (qPCR)” value is given as “not reduced”.

For “pepKAI1 WT: 20 amino acid functional KAI1 peptide with Y*C and EED motifs, NRPEVTYPCSCEVKGEEDNS (SEQ ID NO: 2) (Wild type KAI1 polypeptide)”, the “expression of fibrosis-related genes (α-SMA, Col1a1, TIMP1, Vimentin, TGF-β, fibronectin) increased by TGF-β1 (qPCR)” value in experiment [1] is “reduced”. Besides, the “fibrosis-related gene expression compared to the group treated with rhKAI1 protein (qPCR)” value in experiment [1] (comparison with rhKAI1) is “further reduced”.

B1: KAI1 protein: Human CD82/KAI-1 Protein (His Tag), Sino Biological; comprises extracellular domain, amino acids 111 to 228 of SEQ ID NO: 1 (SEQ ID NO: 4) (protein)
chain: GKLKQEMGGIVTELIRDYNSSREDSLQDAWDYVQAQVKCCGWVSFYNWTDNAELMNRPEVTYPCSCEVKGEEDNSLSVRKGFCEAPGNRTQSGNHPEDWPVYQEGCMEKVQAWLQENL
modifications: His tag; Extracellular domain of recombinant human KAI1 protein
For B1, the “degree of cell damage and inflammatory cell infiltration (H&E staining of liver tissue)” value in experiment [2] is “reduced”. Further, in [3], the “gene expression of Col1a1 in liver tissue (qPCR)” value is given as “reduced”, the “gene expression of TGF-β1 in liver tissue (qPCR)” value was “reduced” and the “gene expression of fibronectin in liver tissue (qPCR)” value is recorded as “reduced”. For the same molecule, in experiment [4], the “expression of fibrosis-related genes (α-SMA, Col1a1, TIMP1, MMP9) increased by TGF-β1 (qPCR)” value is on record as “reduced”. The “expression of ZO-1 protein reduced by TGF-β1 (immunoblotting)” value in experiment [5] is recorded as “recovered”. The “cell proliferation (MTS assay)” value in [6] was “significantly reduced”. Further, in experiment [7], the “gene expression of Col1a1 (qPCR)” value is recorded as “significantly reduced”; the “gene expression of GFAP, marker gene for resting stellate cells (qPCR)” value is given as “tendency to increase”; the “gene expression of TGF-β (qPCR)” value is given as “significantly reduced”; the “gene expression of Vimentin (qPCR)” value was “significantly reduced”. In addition, the “gene expression of α-SMA (qPCR)” value in experiment [7] is listed as “significantly reduced”. In [8], the “protein expression of Col1α1 (immunoblotting)” value is recorded as “reduced”, the “protein expression of GFAP (immunoblotting)” value is given as “increased”, the “protein expression of Vimentin (immunoblotting)” value was “reduced” and the “protein expression of α-SMA (immunoblotting)” value is recorded as “reduced”. In experiment [9], the “expression of SIRT1, a senescence inhibition marker (qPCR)” value is listed as “reduced”; the “expression of senescence marker gene HGMA1 (qPCR)” value is “increased”; the “expression of senescence marker gene p16 (qPCR)” value is listed as “increased”; the “expression of senescence marker gene p21 (qPCR)” value is on record as “increased”. In [9], the “expression of senescence marker gene p53 (qPCR)” value is “increased”. For the same molecule, in experiment [10], the “expression of SIRT1, a senescence inhibition marker protein (immunoblotting)” value was “reduced” and the “expression of p16, a senescence marker protein (immunoblotting)” value is “increased”.
